Laboratory results as given in patent US20220356245A1 (FORTY SEVEN, published 2022).

T1: mouse CD47 (mCD47) expressed on CHO cells (mouse, UniProt Q61735 19-303)
T1 construct: whole, on cells; also called CHO-mCD47
T1 sequence (looked up): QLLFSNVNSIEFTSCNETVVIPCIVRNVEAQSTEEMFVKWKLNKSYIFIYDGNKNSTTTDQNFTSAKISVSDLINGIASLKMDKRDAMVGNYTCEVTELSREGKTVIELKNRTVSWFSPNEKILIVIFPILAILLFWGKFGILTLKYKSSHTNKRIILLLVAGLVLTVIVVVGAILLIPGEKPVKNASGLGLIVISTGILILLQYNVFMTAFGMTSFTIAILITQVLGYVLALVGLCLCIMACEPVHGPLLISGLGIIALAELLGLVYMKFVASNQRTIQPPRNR


Columns and labels:
[1] = target: T1, mouse CD47 (mCD47) expressed on CHO …; assay: flow cytometry, CHO-mCD47 cells (not shown)
[2] = target: T2, hu-sCD47-6His; extracellular domain of human CD47 antigen with 6His-tag (human); assay: SPR Biacore; head read as x 10^-4;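 as to Kd: antibodies captured on anti-IgG CM5 chip, soluble His-tagged human CD47 flowed over at rising concentrations, five 10 min injections, flow cell 1 as reference, 1:1 model fit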;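 as to kon: antibodies captured on anti-IgG CM5 chip, soluble His-tagged human CD47 flowed over at rising concentrations, five 10 min injections, flow cell 1 as reference, 1:1 model fit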
T2 construct: also called hCD47-his; soluble hCD47

[3] = target: T3, human CD47 (hCD47) expressed on cells (human, UniProt Q08722 19-323); assay: flow cytometry, Raji cells
T3 construct: Transfected CHO cells or endogenous CD47 of human cells; also called CHO-hCD47; CD47 on Raji cells

[4] = target: T2, hu-sCD47-6His; extracellular domain of …; assay: SPR Biacore
[5] = target: T3, human CD47 (hCD47) expressed on cells; assay: flow cytometry, Raji cells, competition with hSIRPα
[6] = target: T2, hu-sCD47-6His; extracellular domain of …; assay: SPR Biacore T200, antibody captured, hCD47-his analyte;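 also: antibodies captured on anti-IgG (Fc) CM5 chip, five sequential 10 min antigen injections at rising concentrations, reference flow cell and antigen-free cycle as controls, 1:1 model fit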
Excerpt: An anti-human or anti-mouse IgG (Fc) was first immobilized on the surface of Serie S Sensor Chips CM5 using the human or mouse antibody capture and amine coupling kits, following the manufacturer's instructions (GE Healthcare). […] The mouse, chimerized or humanized antibodies to be tested were then captured onto the appropriate anti-mouse or anti-human IgG surface in all flow cells except flow cell 1 used as control, at concentration and contact time adjusted so that ˜300 RU were captured on the surface. Binding kinetics were studied by passing increasing concentrations of hCD47-his in a series of five 10 minute injections through all flow cells at a rate of 30 μL/min. […] Following the final injection, buffer was passed across each flow cell for 60 minutes (mouse) or 30 minutes (human) to monitor the dissociation of bound antigen. Regeneration of the binding surface was carried out at the end of the cycle by flowing 3 M MgCl₂ for 60 s at 20 μL/min followed by 10 mM glycine-HCl, pH 1.7 for 180 s at 10 μl/min (for human) or by flowing 10 mM glycine-HCl, ph 1.7 for 360 s at 10 μl/min (for mouse). A second cycle with the same antibodies but no antigen was run as a control. Kinetics binding constants were estimated by non-linear fitting of the sensogram data to the 1:1 binding model provided by the Biacore T200 evaluation software.

Row | Binder | binding result [1] | koff [2] [s⁻¹] | EC50 [3] [µg/mL] | Kd [4] [nM] | kon [4] [M⁻¹ s⁻¹] | IC50 [5] [µg/mL] | Kd [6] [nM] | koff [6] [s⁻¹] | kon [6] [M⁻¹ s⁻¹]
1 | h20-VH2-VL3 (candidate 20.8) (antibody, human IgG4 S228P, kappa, V domains shown, hIgG4-S228P/kappa; also called h20-H2-L3) VH: QVQLVQSGAEVKKPGASVKVSCKASGYSFTDYYINWVRQAPGQGLEWMGRIYPGIGNTYYNKKFKGRVTITRDTSASTAYMELSSLRSEDTAVYYCARGHYGRGMDYWGQGTLVTVSS VL: EIVLTQSPDSLAVSLGERATINCKSSQSLLNSIDQKNYLAWYQQKAGQSPKLLIYFASTKESGVPDRFSGSGSGTDFTLTIDSLQAEDVAVYYCQQHYSTPWTFGGGTKVEIKR | no binding | 0.000628 | 0.184 | 3.65 | 189000 | 0.079 | – | – | –
2 | h20-VH5-VL3 (candidate 20.23) (antibody, human IgG4 S228P, kappa, V domains shown, hIgG4-S228P/kappa; also called h20-H5-L3) VH: QVQLVQSGAEVKKPGASVKVSCKASGYSFTDYYINWVRQAPGQGLEWMGRIYPGIGNTYYNKKFKGRVTMTRYTSISTAYMELSRLRSDDTAVYFCARGHYGRGMDYWGQGTTVTVSS VL: EIVLTQSPDSLAVSLGERATINCKSSQSLLNSIDQKNYLAWYQQKAGQSPKLLIYFASTKESGVPDRFSGSGSGTDFTLTIDSLQAEDVAVYYCQQHYSTPWTFGGGTKVEIKR | no binding | 0.000841 | 0.19 | 9.93 | 104000 | 0.169 | – | – | –
3 | h20-VH5-VL4 (candidate 20.24) (antibody, human IgG4 S228P, kappa, V domains shown, hIgG4-S228P/kappa; also called h20-H5-L4) VH: QVQLVQSGAEVKKPGASVKVSCKASGYSFTDYYINWVRQAPGQGLEWMGRIYPGIGNTYYNKKFKGRVTMTRYTSISTAYMELSRLRSDDTAVYFCARGHYGRGMDYWGQGTTVTVSS VL: DIVMTQSPDSLAVSLGERATINCKSSQSLLNSIDQKNYLAWYQQKPGQPPKLLIYFASTKESGVPDRFSGSGSGTDFTLTISSLQAEDVAVYFCQQHYSTPWTFGGGAKVEIKR | no binding | 0.00102 | 0.177 | 11 | 103000 | 0.133 | – | – | –
4 | h20-VH3-VL5 (candidate 20.15) (antibody, human IgG4 S228P, kappa, V domains shown, hIgG4-S228P/kappa; also called h20-H3-L5) VH: QVQLVQSGAEVKKPGASVKVSCKASGYSFTDYYINWVRQAPGQGLEWMGRIYPGIGNTYYNKKFKGRVTVTRDTSISTAHMELSSLRSDDTAVYYCARGHYGRGMDYWGQGTAVTVSS VL: DIVMTQSPDSLAVSLGERATINCKSSQSLLNSIDQKNYLAWYQQKPGQPPKLLIYFASTKESGVPDRFSGSGSGTDFTLTISGLQAEDVAVYFCQQHYSTPWTFGGGTKVEIRR | no binding | 0.000528 | 0.143 | 2.36 | 242000 | 0.113 | – | – | –
5 | B6H12 (mouse IgG1, Abcam) (antibody, V domains shown) VH: EVQLVESGGDLVKPGGSLKLSCAASGFTFSGYGMSWVRQTPDKRLEWVATITSGGTYTYYPDSVKGRFTISRDNAKNTLYLQIDSLKSEDTAIYFCARSLAGNAMDYWGQGTSVTVSS VL: DIVMTQSPATLSVTPGDRVSLSCRASQTISDYLHWYQQKSHESPRLLIKFASQSISGIPSRFSGSGSGSDFTLSINSVEPEDVGVYYCQNGHGFPRTFGGGTKLEIK | – | – | – | – | – | – | 5.14 | 6.59e-05 | 12900

More lines, now with the values ahead:

Row | binding result [1] | koff [2] [s⁻¹] | EC50 [3] [µg/mL] | Kd [4] [nM] | kon [4] [M⁻¹ s⁻¹] | IC50 [5] [µg/mL] | Kd [6] [nM] | koff [6] [s⁻¹] | kon [6] [M⁻¹ s⁻¹] | Binder
6 | no binding | 0.000595 | 0.206 | 3.53 | 198000 | 0.111 | – | – | – | h20-VH1-VL5 (candidate 20.5) (antibody, human IgG4 S228P, kappa, V domains shown, hIgG4-S228P/kappa; also called h20-H1-L5) VH: QVQLLESGAVLARPGTSVKISCKASGYSFTDYYINWVKQRPGQGLEWIGRIYPGIGNTYYNKKFKGRAKLTAATSASIAYLEFSSLTNEDSAVYYCARGHYGRGMDYWGQGTLVTVSS VL: DIVMTQSPDSLAVSLGERATINCKSSQSLLNSIDQKNYLAWYQQKPGQPPKLLIYFASTKESGVPDRFSGSGSGTDFTLTISGLQAEDVAVYFCQQHYSTPWTFGGGTKVEIRR
7 | no binding | 0.000632 | 0.173 | 3.34 | 219000 | 0.123 | – | – | – | h20-VH2-VL4 (candidate 20.9) (antibody, human IgG4 S228P, kappa, V domains shown, hIgG4-S228P/kappa; also called h20-H2-L4) VH: QVQLVQSGAEVKKPGASVKVSCKASGYSFTDYYINWVRQAPGQGLEWMGRIYPGIGNTYYNKKFKGRVTITRDTSASTAYMELSSLRSEDTAVYYCARGHYGRGMDYWGQGTLVTVSS VL: DIVMTQSPDSLAVSLGERATINCKSSQSLLNSIDQKNYLAWYQQKPGQPPKLLIYFASTKESGVPDRFSGSGSGTDFTLTISSLQAEDVAVYFCQQHYSTPWTFGGGAKVEIKR
8 | no binding | 0.000733 | 0.164 | 4.37 | 180000 | 0.142 | – | – | – | h20-VH4-VL3 (candidate 20.18) (antibody, human IgG4 S228P, kappa, V domains shown, hIgG4-S228P/kappa; also called h20-H4-L3) VH: QVQLVQSGAEVKKPGSSVKVSCKASGYSFTDYYINWVRQAPGQGLEWMGRIYPGIGNTYYNKKFKGRVTITADKSTSTAYMELSSLRSEDTAVYYCARGHYGRGMDYWGQGTTVTVSS VL: EIVLTQSPDSLAVSLGERATINCKSSQSLLNSIDQKNYLAWYQQKAGQSPKLLIYFASTKESGVPDRFSGSGSGTDFTLTIDSLQAEDVAVYYCQQHYSTPWTFGGGTKVEIKR
9 | no binding | 0.000581 | 0.143 | 3.02 | 216000 | 0.135 | – | – | – | h20-VH3-VL4 (candidate 20.14) (antibody, human IgG4 S228P, kappa, V domains shown, hIgG4-S228P/kappa; also called h20-H3-L4) VH: QVQLVQSGAEVKKPGASVKVSCKASGYSFTDYYINWVRQAPGQGLEWMGRIYPGIGNTYYNKKFKGRVTVTRDTSISTAHMELSSLRSDDTAVYYCARGHYGRGMDYWGQGTAVTVSS VL: DIVMTQSPDSLAVSLGERATINCKSSQSLLNSIDQKNYLAWYQQKPGQPPKLLIYFASTKESGVPDRFSGSGSGTDFTLTISSLQAEDVAVYFCQQHYSTPWTFGGGAKVEIKR
10 | no binding | 0.000839 | 0.184 | 7.33 | 131000 | 0.228 | – | – | – | h20-VH1-VL3 (candidate 20.3) (antibody, human IgG4 S228P, kappa, V domains shown, hIgG4-S228P/kappa; also called h20-H1-L3) VH: QVQLLESGAVLARPGTSVKISCKASGYSFTDYYINWVKQRPGQGLEWIGRIYPGIGNTYYNKKFKGRAKLTAATSASIAYLEFSSLTNEDSAVYYCARGHYGRGMDYWGQGTLVTVSS VL: EIVLTQSPDSLAVSLGERATINCKSSQSLLNSIDQKNYLAWYQQKAGQSPKLLIYFASTKESGVPDRFSGSGSGTDFTLTIDSLQAEDVAVYYCQQHYSTPWTFGGGTKVEIKR
11 | no binding | 0.00109 | 0.159 | 9.69 | 126000 | 0.112 | – | – | – | h20-VH5-VL5 (candidate 20.25) (antibody, human IgG4 S228P, kappa, V domains shown, hIgG4-S228P/kappa; also called h20-H5-L5) VH: QVQLVQSGAEVKKPGASVKVSCKASGYSFTDYYINWVRQAPGQGLEWMGRIYPGIGNTYYNKKFKGRVTMTRYTSISTAYMELSRLRSDDTAVYFCARGHYGRGMDYWGQGTTVTVSS VL: DIVMTQSPDSLAVSLGERATINCKSSQSLLNSIDQKNYLAWYQQKPGQPPKLLIYFASTKESGVPDRFSGSGSGTDFTLTISGLQAEDVAVYFCQQHYSTPWTFGGGTKVEIRR
12 | no binding | 0.000772 | 0.248 | 7.58 | 126000 | 0.261 | – | – | – | h20-VH1-VL4 (candidate 20.4) (antibody, human IgG4 S228P, kappa, V domains shown, hIgG4-S228P/kappa; also called h20-H1-L4) VH: QVQLLESGAVLARPGTSVKISCKASGYSFTDYYINWVKQRPGQGLEWIGRIYPGIGNTYYNKKFKGRAKLTAATSASIAYLEFSSLTNEDSAVYYCARGHYGRGMDYWGQGTLVTVSS VL: DIVMTQSPDSLAVSLGERATINCKSSQSLLNSIDQKNYLAWYQQKPGQPPKLLIYFASTKESGVPDRFSGSGSGTDFTLTISSLQAEDVAVYFCQQHYSTPWTFGGGAKVEIKR
